Two substances from article PMC3921101 can be followed below.

The target of the experiment is L-selectin (CD62L) on Jurkat T cells (human (endogenous in Jurkat)) (UniProt P14151). Put plainly: flow cytometry on cells.
Chain of UniProt P14151 (P14151 39-372): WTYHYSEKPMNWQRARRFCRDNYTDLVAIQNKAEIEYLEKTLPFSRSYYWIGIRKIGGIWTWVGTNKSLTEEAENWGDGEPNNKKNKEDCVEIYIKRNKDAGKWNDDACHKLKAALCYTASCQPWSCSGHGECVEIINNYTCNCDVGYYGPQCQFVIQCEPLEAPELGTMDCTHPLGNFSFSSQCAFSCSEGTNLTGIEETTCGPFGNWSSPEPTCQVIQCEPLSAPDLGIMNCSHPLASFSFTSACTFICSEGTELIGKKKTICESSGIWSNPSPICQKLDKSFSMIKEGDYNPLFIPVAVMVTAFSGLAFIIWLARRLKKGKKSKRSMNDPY

With “Human PSGL-1-Fc chimera (from UniProt Q14242 42-320) (Fc fusion)”, the fold binding (MFI) with DREG-55 mAb, relative to the DREG-200 mAb sample worked out at 1.6 fold.
Next, “Human E-selectin-Fc chimera (from UniProt P16581 22-556) (Fc fusion)”: 1.4 fold.
